From patent US20220143148A1, “COMPOSITIONS AND METHODS FOR MODULATING CGRP SIGNALING TO REGULATE INTESTINAL INNATE LYMPHOID CELLS” (The Broad Institute, Inc., priority 2019, published 2022)

Tested on: small intestinal immune cells
Assay: Droplet-based scRNA-seq of small intestinal immune cells (LP and PP), OVA vs PBS, clustering and differential expression
Assay type: in vivo, mouse
Conditions: cluster ID 4, PP
From the text: To comprehensively characterize small intestinal immune cells, Applicants generated scRNA-Seq profiles for 58,067 immune cells collected from lamina propria (LP) and Peyer's patch (PP) regions at steady state and after induction of a type 2 inflammatory reaction to ovalbumin (OVA) (Brandt et al., 2003) (FIGS. 1A and 8A). To ensure sufficient representation of rare cells, Applicants combined a normalization strategy—removing by flow sorting either a portion of IgD+ naïve B cells, which are the most abundant cell type in PPs, or all CD19+ and CD3+ T cells (FIG. 8B, Methods)—with profiling of a sufficiently large number of cells number (P>0.99 to recover at least 15 cells from each cluster, Methods) by massively parallel scRNA-seq (Haber et al., 2017) (Methods). Applicants obtained 36,797 and 21,270 high quality cells passing initial filtering (Methods) from PP and LP regions, respectively.
Overall, Applicants annotated 27 cell subsets across the two compartments, spanning T cells, B cells, ILCs, dendritic cells (DCs), myeloid cells and stromal cells, in frequencies ranging from 0.07% to 14%. Briefly, Applicants first partitioned the cells from the PP regions by unsupervised clustering (Methods) into 46 clusters, retained the 97% of cells that were robustly assigned cell identities in each cluster (Methods), assigned the cells from the LP regions to the 46 clusters using a classifier (Methods), and visualized the data with scvis (Ding et al., 2018), a deep generative model-based method (FIGS. 1B and 8C, Methods). Next, Applicants identified genes that were differentially expressed between the cells in each cluster and the remaining cells (Table 1, Methods), as well as between pairs of clusters (Table 2), to elucidate identities of similar cell types/states. Applicants excluded from downstream analysis clusters mostly consisting of contaminants from epithelium, likely doublets, or cells with a small number of Unique Molecular Identifiers (UMIs) (FIGS. 1C and 8D), or lacking distinct markers (Methods). Altogether, Applicants retained 27 clusters spanning 85% of the cells and each associated with distinct marker genes (FIG. 8E, Methods).
To induce allergic reaction to OVA, 6 to 7 weeks old mice were sensitized twice, two weeks apart, with 50 μg of OVA plus 1 mg of aluminum potassium sulfate adjuvant via intraperitoneal injection. Two weeks later, mice were orally administered with 50 mg of OVA on every other day for a total of five times. 1 μg of α-CGRP peptide was administered simultaneously when indicated. Mice were deprived of food for 3-4 hours in cages with wood chip bedding for limiting antigen degradation in the stomach before each intragastric challenge.
Isolation of cells from Peyer's patches (PPs). Peyer's patches (PPs) were carefully dissected from the small intestine under a stereo microscope using a fine scissor, pierced once with a fine forcep. Tissues were digested in freshly made digestion buffer (RPMI-1640 containing 100 μg/ml Liberase™ and 50 μg/ml DNase I at 37° C. on a roto-mixer. After 15 min, tissues were very gently mixed using a 1 ml pipette. The supernatant was collected and added to ice-cold MACS buffer (pH 7.4; PBS plus 2% FCS and 2 mM EDTA). Pre-warmed (37° C.) fresh digestion buffer was added to the remaining tissues. After rotation at 37° C. for 15 min, the mixture was vigorously mixed using a 1 ml pipette for 1 min. Supernatants from the two steps were combined and passed through 70 μm filters and stained for FACS (below).
Isolation of cells from the lamina propria (LP). The small intestines were opened longitudinally and washed in ice-cold PBS. For scRNA-seq, roughly 0.5 cm of fragments from each of the distal, middle and proximal regions without visible PPs were collected. Epithelial cells were dissociated by tissue rotation in pre-warmed (37° C.) PBS containing 10 mM EDTA at 37° C. for 15 min, followed by additional incubation on ice for 15 min. Tissues were then shaken vigorously. […]

B1: OVA (protein, UniProt P01012 2-386, looked up)
Ovalbumin: GSIGAASMEFCFDVFKELKVHHANENIFYCPIAIMSALAMVYLGAKDSTRTQINKVVRFDKLPGFGDSIEAQCGTSVNVHSSLRDILNQITKPNDVYSFSLASRLYAEERYPILPEYLQCVKELYRGGLEPINFQTAADQARELINSWVESQTNGIIRNVLQPSSVDSQTAMVLVNAIVFKGLWEKAFKDEDTQAMPFRVTEQESKPVQMMYQIGLFRVASMASEKMKILELPFASGTMSMLVLLPDEVSGLEQLESIINFEKLTEWTSSNVMEERKIKVYLPRMKMEEKYNLTSVLMAMGITDVFSSSANLSGISSAESLKISQAVHAAHAEINEAGREVVGSAEAGVDAASVSEEFRADHPFLFCIKHIATNAVLFFGRCVSP
H2-T23: percentage of expressing cells in OVA-treated group: 0.264 | Herpud1: percentage of expressing cells in OVA-treated group: 0.33 | Icos: percentage of expressing cells in OVA-treated group: 0.236 | Il2ra: percentage of expressing cells in OVA-treated group: 0.457 | Il18r1: percentage of expressing cells in OVA-treated group: 0.605 | Irf2: percentage of expressing cells in OVA-treated group: 0.306 | Irs2: percentage of expressing cells in OVA-treated group: 0.149 | Itgav: percentage of expressing cells in OVA-treated group: 0.175 | Klf13: percentage of expressing cells in OVA-treated group: 0.417 | Klrk1: percentage of expressing cells in OVA-treated group: 0.133 | Leng9: percentage of expressing cells in OVA-treated group: 0.128 | Map3k14: percentage of expressing cells in OVA-treated group: 0.133 | Mast4: percentage of expressing cells in OVA-treated group: 0.467 | Mbnl2: percentage of expressing cells in OVA-treated group: 0.162 | Minos1: percentage of expressing cells in OVA-treated group: 0.768 | Morf4l2: percentage of expressing cells in OVA-treated group: 0.317 | Neat1: percentage of expressing cells in OVA-treated group: 0.502 | Nedd8: percentage of expressing cells in OVA-treated group: 0.781 | Plekhg1: percentage of expressing cells in OVA-treated group: 0.231 | Ppp1r16b: percentage of expressing cells in OVA-treated group: 0.302 | Ppp2ca: percentage of expressing cells in OVA-treated group: 0.336 | Ptger2: percentage of expressing cells in OVA-treated group: 0.299 | Ptpn7: percentage of expressing cells in OVA-treated group: 0.337 | Raf1: percentage of expressing cells in OVA-treated group: 0.232 | Ramp3: percentage of expressing cells in OVA-treated group: 0.224 | Rassf5: percentage of expressing cells in OVA-treated group: 0.31 | Rcn2: percentage of expressing cells in OVA-treated group: 0.258 | Rel: percentage of expressing cells in OVA-treated group: 0.19 | Rgs1: percentage of expressing cells in OVA-treated group: 0.498 | Rgs3: percentage of expressing cells in OVA-treated group: 0.282 | Rnf19b: percentage of expressing cells in OVA-treated group: 0.427 | Rpa3: percentage of expressing cells in OVA-treated group: 0.175 | S100a6: percentage of expressing cells in OVA-treated group: 0.603 | S100a10: percentage of expressing cells in OVA-treated group: 0.866 | Saraf: percentage of expressing cells in OVA-treated group: 0.557 | Sat1: percentage of expressing cells in OVA-treated group: 0.744 | Scn1b: percentage of expressing cells in OVA-treated group: 0.314 | Sec11a: percentage of expressing cells in OVA-treated group: 0.376 | Serpina3g: percentage of expressing cells in OVA-treated group: 0.587 | Serpinb6b: percentage of expressing cells in OVA-treated group: 0.2 | Ssna1: percentage of expressing cells in OVA-treated group: 0.294 | Taf7: percentage of expressing cells in OVA-treated group: 0.144 | Taf10: percentage of expressing cells in OVA-treated group: 0.297 | Tagap: percentage of expressing cells in OVA-treated group: 0.461 | Tcrg-C1: percentage of expressing cells in OVA-treated group: 0.36 | Tgoln1: percentage of expressing cells in OVA-treated group: 0.286 | Timm13: percentage of expressing cells in OVA-treated group: 0.592 | Tnf: percentage of expressing cells in OVA-treated group: 0.245 | Trim8: percentage of expressing cells in OVA-treated group: 0.223 | Trps1: percentage of expressing cells in OVA-treated group: 0.17 | Tsc22d3: percentage of expressing cells in OVA-treated group: 0.489 | Tspan32: percentage of expressing cells in OVA-treated group: 0.395 | Ttc19: percentage of expressing cells in OVA-treated group: 0.152 | Tuba4a: percentage of expressing cells in OVA-treated group: 0.156 | Tubb4b: percentage of expressing cells in OVA-treated group: 0.347 | Txk: percentage of expressing cells in OVA-treated group: 0.529 | Vegfa: percentage of expressing cells in OVA-treated group: 0.131 | VgIl4: percentage of expressing cells in OVA-treated group: 0.338 | Zc3hav1: percentage of expressing cells in OVA-treated group: 0.145 | Zfand5: percentage of expressing cells in OVA-treated group: 0.252 | 1600014C10Rik: LN (average fold change) (OVA vs PBS): 0.467 | 2010300C02Rik: LN (average fold change) (OVA vs PBS): 0.310 | 2310001H17Rik: LN (average fold change) (OVA vs PBS): 0.484 | 4921524J17Rik: LN (average fold change) (OVA vs PBS): 0.531 | Alyref: LN (average fold change) (OVA vs PBS): −0.564 | Amd1: LN (average fold change) (OVA vs PBS): −0.353 | Asb2: LN (average fold change) (OVA vs PBS): 0.320 | Azin1: LN (average fold change) (OVA vs PBS): −0.472 | Bin3: LN (average fold change) (OVA vs PBS): 0.452 | Bzw1: LN (average fold change) (OVA vs PBS): −0.190 | Cacybp: LN (average fold change) (OVA vs PBS): 0.291 | Cd69: LN (average fold change) (OVA vs PBS): −0.153 | Cdkn1a: LN (average fold change) (OVA vs PBS): −0.202 | Clec2d: LN (average fold change) (OVA vs PBS): 0.489 | Cwc25: LN (average fold change) (OVA vs PBS): −0.463
